Numbering of substitutions follows the chain as printed.
T1: dimeric hIL-4R-hFc (human, UniProt P24394 26-232)
T1 construct: also called hIL-4R-Fc; not shown: human Fc (hFc)
T1 sequence: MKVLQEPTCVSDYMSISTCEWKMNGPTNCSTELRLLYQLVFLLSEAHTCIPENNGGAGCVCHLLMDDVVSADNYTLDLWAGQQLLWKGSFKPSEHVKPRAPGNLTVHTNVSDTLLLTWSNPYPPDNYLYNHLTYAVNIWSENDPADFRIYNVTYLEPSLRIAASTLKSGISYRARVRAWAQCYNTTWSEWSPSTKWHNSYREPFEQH

T2: hIL-4R on cells (STAT6-transfected HEK293, TF1, TF1/A12) (human, UniProt P24394 26-825)
T2 sequence (looked up): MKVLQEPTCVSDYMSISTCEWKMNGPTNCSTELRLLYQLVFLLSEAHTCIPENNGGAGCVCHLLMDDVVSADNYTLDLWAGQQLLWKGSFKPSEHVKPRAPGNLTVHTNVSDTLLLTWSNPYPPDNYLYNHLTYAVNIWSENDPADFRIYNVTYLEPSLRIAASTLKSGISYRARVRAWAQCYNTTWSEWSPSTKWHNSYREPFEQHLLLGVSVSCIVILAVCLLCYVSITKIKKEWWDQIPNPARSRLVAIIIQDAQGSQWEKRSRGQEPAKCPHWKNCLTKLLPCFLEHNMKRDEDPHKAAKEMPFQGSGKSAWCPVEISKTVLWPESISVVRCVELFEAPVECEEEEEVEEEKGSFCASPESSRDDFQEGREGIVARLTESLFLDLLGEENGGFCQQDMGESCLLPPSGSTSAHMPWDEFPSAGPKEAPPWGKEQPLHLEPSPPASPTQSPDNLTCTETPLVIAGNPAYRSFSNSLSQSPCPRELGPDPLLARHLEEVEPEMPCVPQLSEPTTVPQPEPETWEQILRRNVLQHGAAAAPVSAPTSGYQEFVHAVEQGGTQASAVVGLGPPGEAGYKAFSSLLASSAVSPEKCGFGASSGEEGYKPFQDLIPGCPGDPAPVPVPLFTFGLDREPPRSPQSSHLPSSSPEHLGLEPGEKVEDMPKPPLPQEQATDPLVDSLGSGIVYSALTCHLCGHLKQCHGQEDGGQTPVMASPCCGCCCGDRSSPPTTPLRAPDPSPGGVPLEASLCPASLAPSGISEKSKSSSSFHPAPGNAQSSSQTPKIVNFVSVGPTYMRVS

T3: mouse IL-4R (mouse, UniProt P16382 26-233, limits assumed)
T3 sequence (looked up): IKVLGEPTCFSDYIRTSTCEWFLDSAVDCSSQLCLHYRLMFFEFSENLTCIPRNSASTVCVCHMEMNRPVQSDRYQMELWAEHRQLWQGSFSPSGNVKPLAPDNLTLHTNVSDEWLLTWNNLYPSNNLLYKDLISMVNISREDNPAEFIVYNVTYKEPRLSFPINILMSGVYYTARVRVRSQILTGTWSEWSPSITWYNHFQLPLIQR

T4: monomeric hIL-4R (R&D Systems) (human, UniProt P24394 26-231)
T4 construct: Bought (R&D Systems); also called hIL-4R monomer
T4 sequence: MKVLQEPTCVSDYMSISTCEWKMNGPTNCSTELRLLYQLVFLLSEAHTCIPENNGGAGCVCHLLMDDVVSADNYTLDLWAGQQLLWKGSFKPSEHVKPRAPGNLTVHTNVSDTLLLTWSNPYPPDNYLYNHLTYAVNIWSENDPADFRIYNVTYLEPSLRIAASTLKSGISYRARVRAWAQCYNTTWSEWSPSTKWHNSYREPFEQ

B1: VAB 16G1-1 (antibody, V domains shown)
VH: EVKLAESGGGLVQPGGSLRLSCAASGFTFSSHWMNWVRQAPGKGLEWVANIKQDGSDKYYVDSVKGRFTISRDNAKNSLYLQLNSLIAEDTAVYYCARDRGVRPPRGAFDIWGQGTMVTVSS
VL: DIQMTQSPSSVSASVGDRVTITCRASQGISSWLAWYQQKPGKAPKLLIYAASSFQSGVPSRFSGSGSGTDFTLTISSLQPEDFATYFCQQANSFPLTFGGGTTVEIK
notes: 403/405; 407/409 without saying which was assayed; Apparently tested with mouse constant region (anti-mouse IgG capture/detection)
B2: VAB 1H1-2 (antibody, V domains shown)
VH: QVQLVQSGAEVKKPGASVKVSCKASGYTFTSYGISWVRQAPGQGLEWMGWISVYNGNTNYAQKLQGRVTMTTDTSTSTAYMDLRSLRSDDAAVYYCARGSGYDFDYWGQGTLVTVSS
VL: AIQMTQSPSSLSASVGDRVTITCRASQGIRNALGWYQQKPGKAPKLLIYAASSLQSGVPSRFSGSGSGTDFTLTISSLQSEDFATYYCLQDYNYPYTFGQGTKLEIK
notes: Apparently tested with mouse constant region (anti-mouse IgG capture/detection)
B3: VAB 6C10-14 (antibody, V domains shown)
VH: B2 VH with S31N, I34L, S35T, Q43R, K63T, Q65K, D82E, R84K, A91T
VL: B2 VL with T20A, G28D, A32D, Y49H, A50T, S77N, S80P, Y92N, N93S, K107N
notes: as for B2
B4: VAB 3B4-10 (antibody, V domains shown)
VH: B2 VH with Q3H, S31N, S35G, V53I, K63R, Y80F, R87K, A91T, D103N, Y106H
VL: B2 VL with A32D, K39I, S77N, S80P, T85V, Y87F, Y92N, N93T, K103N, I106S
notes: as for B2
B5: VX 4E7-9 (antibody, V domains shown)
VH: B2 VH with S31N, N57K, S77T, D82E, L83M, A91T, F104L, T114S
VL: B2 VL with I75F, S80P, Y92F
notes: 387/389; Apparently tested with mouse constant region (anti-mouse IgG capture/detection)
B6: VAB 11G8-1 (antibody, V domains shown)
VH: B2 VH with S31N, N57H, D82E, A91T, Y106S
VL: B2 VL with P8S, G28A, L46V, V58I, S80P, N93D
notes: as for B2
B7: VAB 8G10-1 (antibody, V domains shown)
VH: B2 VH with A9P, S31N, T58I, A91T
VL: B2 VL with G28D, G66A, S80P, T85A
notes: as for B2
B8: VAB 4D5-3 (antibody, V domains shown)
VH: B2 VH with A9P, S31N, N57K, L64F, A91T
VL: B2 VL with Y49F, A51S, S76R, S80P, T85A
notes: as for B2
B9: VAB 5C5-11 (antibody, V domains shown)
VH: QVQLVQSGAEVQKPGASVKVSCKASGYTFTGQYIHWVRQAPGQGLEWMGWINPNSGGTNFAQKFQDRVTMTRDTSIGTVYMELRRLTSDDTAVFYCVREKRGFDIWGQGTMVTVSS
VL: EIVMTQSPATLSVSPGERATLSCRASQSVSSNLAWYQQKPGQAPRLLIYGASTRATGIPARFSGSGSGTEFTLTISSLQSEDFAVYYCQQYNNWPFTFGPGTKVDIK
notes: as for B2

Assays:
dimeric hIL-4R-hFc [1] = molecular target: T1, dimeric hIL-4R-hFc; assay: SPR; reduction of hIL-4 (50 nM) binding to captured hIL-4R-hFc after antibody; competitor hIL-4
Description: Purified hIL-4R-hFc molecules were captured by goat anti-human IgG polyclonal antibody immobilized on CM-5 to a density of 260 RU, to prepare a receptor-coated surface.

[2] = molecular target: T2, hIL-4R on cells (STAT6-transfected …); assay: cell-based or functional assay
dimeric hIL-4R-hFc [3] = molecular target: T1, dimeric hIL-4R-hFc; assay: ELISA; antibody titrated against 25 pM hIL-4R-Fc, free receptor caught on hIL-4 plate
Procedure: Concentration of free hIL-4R-Fc (no antibody bound) was determined using a hIL-4R-specific sandwich ELISA. […] After a one-hour incubation at room temperature, the detection plate was washed and plate-bound hIL-4R-hFc was detected using HRP conjugated goat anti-hFc polyclonal antibodies and developed using colorimetric substrates such as BD OptEIA™ (BD Biosciences Pharmingen, San Diego, Calif.). After the reaction was stopped with 1 M phosphoric or sulfuric acid, absorbances at 450 nm were recorded and the data were analyzed using GraphPad™ Prism software.

dimeric hIL-4R-hFc [4] = molecular target: T1, dimeric hIL-4R-hFc; assay: SPR (BIAcore 2000); antibody captured, dimeric hIL-4R-hFc injected
Procedure: (§1) Binding affinity (KD) of selected antibodies with respect to hIL-4R was determined using a real-time biosensor surface plasmon resonance assay (BIAcore™ 2000). Briefly, antibody was captured on a goat anti-mouse (GAM) IgG polyclonal antibody surface created through direct chemical coupling of the GAM IgG to a BIAcore™ chip to form a captured antibody surface. […] Binding of antigen to antibody and dissociation of the bound complex, were monitored in real time. Equilibrium dissociation constants (KD) and dissociation rate constants were ascertained by performing kinetic analysis using BIA evaluation software. BIA evaluation software was also used to calculate the half-life of antigen/antibody complex dissociation (T_{1/2}). […] The binding affinity of anti-hIL-4R antibodies to either mouse or monkey (Macaca fascicularis) IL-4R was also tested.

[5] = molecular target: T2, hIL-4R on cells (STAT6-transfected …); assay: cell-based or functional assay; remark: listed apart in the source
mouse IL-4R = molecular target: T3, mouse IL-4R; assay: binding affinity test of Example 2 (method not restated)
[6] = molecular target: T4, monomeric hIL-4R (R&D Systems); assay: SPR (BIAcore 2000); antibody captured, monomeric hIL-4R injected
Procedure: as §1

Binder	% Inhibition (BIAcore) (dimeric hIL-4R-hFc [1])	STAT6 Bioassay IC50 (HEK293 STAT6 luciferase, 10 pM hIL-4) [2]	TF1/A12 Bioassay IC50 (proliferation, 20 pM hIL-4) [2]	TF1 Bioassay IC50 (proliferation, 50 pM hIL-4) [2]	IC50 (dimeric hIL-4R-hFc [3])	Kd (dimeric hIL-4R-hFc [4])	T1/2 dimeric (dimeric hIL-4R-hFc [4])	STAT6 Bioassay IC50 (HEK293 STAT6 luciferase, 40 pM hIL-13) [5]	TF1 Bioassay IC50 (proliferation, 150 pM hIL-13) [5]	binding result (mouse IL-4R)	Kd [6]	T1/2 monomeric [6]
B1	92%	0.14 nM	0.7 nM	0.12 nM	0.018 nM	0.038 nM	7.3 h	0.09 nM	0.44 nM	no binding	0.93 nM	0.25 h
B2	78%	> 10 nM	> 50 nM	–	0.146 nM	0.139 nM	8.2 h	> 10 nM	–	no binding	34.9 nM	0.133 h
B3	79%	> 10 nM	23 nM	–	0.441 nM	0.286 nM	6.2 h	> 10 nM	–	no binding	1.77 nM	1.22 h
B4	72%	> 10 nM	> 50 nM	–	0.322 nM	0.053 nM	20.4 h	8.3 nM	–	no binding	0.59 nM	1.7 h
B5	79%	7.9 nM	10 nM	–	0.118 nM	0.111 nM	19.1 h	6.3 nM	–	no binding	1.43 nM	0.8 h
B6	77%	> 10 nM	> 50 nM	–	0.24 nM	0.108 nM	8.7 h	8.8 nM	–	no binding	1.63 nM	0.417 h
B7	74%	> 10 nM	> 50 nM	–	0.244 nM	5.51 nM	4.1 h	> 10 nM	–	no binding	7.71 nM	0.467 h
B8	82%	3.8 nM	21 nM	–	0.24 nM	0.032 nM	20.4 h	3.3 nM	–	no binding	2.02 nM	0.583 h
B9	96%	0.14 nM	0.37 nM	0.21 nM	0.024 nM	0.027 nM	7.7 h	0.06 nM	0.82 nM	no binding	0.13 nM	0.783 h

Source: patent US20080160035A1 (Regeneron, published 2008)
